From US20130171163 come the findings set out here.

The target of data set [1] is VEGFR2 (UniProt P35968).
In data set [2] the target is insulin-like growth-factor-1 receptor beta subunit (IGF-1Rβ) (UniProt P08069).
Chain of insulin-like growth-factor-1 receptor beta subunit (IGF-1Rβ) (P08069 whole entry, looked up, tested part not stated): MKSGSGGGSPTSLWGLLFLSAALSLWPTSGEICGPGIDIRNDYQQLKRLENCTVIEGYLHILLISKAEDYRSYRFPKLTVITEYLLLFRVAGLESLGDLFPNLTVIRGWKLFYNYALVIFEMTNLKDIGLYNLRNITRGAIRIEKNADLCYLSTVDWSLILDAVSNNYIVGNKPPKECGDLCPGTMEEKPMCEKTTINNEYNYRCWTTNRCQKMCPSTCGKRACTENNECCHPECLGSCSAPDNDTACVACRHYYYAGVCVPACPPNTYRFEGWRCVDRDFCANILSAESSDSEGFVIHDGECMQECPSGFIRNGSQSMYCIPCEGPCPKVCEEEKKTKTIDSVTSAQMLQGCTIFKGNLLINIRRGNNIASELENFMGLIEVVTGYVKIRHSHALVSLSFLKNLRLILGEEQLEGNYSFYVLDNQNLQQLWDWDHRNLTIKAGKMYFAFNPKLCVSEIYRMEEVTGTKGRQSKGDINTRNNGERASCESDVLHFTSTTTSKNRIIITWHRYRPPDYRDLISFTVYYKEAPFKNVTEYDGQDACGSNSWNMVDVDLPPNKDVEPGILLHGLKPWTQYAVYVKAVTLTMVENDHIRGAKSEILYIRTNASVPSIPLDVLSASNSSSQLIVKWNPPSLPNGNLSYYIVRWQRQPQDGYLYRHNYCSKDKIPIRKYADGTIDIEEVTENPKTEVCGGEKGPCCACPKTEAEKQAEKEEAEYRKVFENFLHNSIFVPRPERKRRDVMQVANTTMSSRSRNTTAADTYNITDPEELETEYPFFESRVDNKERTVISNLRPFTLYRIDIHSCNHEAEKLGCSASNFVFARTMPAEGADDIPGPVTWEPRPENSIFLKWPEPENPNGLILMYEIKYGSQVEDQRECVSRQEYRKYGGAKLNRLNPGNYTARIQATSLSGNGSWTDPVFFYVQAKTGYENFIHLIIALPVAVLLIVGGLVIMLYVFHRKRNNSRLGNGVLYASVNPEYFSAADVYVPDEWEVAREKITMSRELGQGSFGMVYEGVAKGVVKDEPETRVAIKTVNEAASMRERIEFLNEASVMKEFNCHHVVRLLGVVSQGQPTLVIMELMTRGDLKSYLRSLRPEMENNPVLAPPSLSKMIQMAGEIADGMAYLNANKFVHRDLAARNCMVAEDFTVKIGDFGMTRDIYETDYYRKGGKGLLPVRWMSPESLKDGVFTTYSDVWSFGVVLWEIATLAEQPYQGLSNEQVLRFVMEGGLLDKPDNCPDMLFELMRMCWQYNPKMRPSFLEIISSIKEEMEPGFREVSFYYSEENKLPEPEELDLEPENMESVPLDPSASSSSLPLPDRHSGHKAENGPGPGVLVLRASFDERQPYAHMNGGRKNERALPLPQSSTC

Chain of VEGFR2 (P35968 20-1356): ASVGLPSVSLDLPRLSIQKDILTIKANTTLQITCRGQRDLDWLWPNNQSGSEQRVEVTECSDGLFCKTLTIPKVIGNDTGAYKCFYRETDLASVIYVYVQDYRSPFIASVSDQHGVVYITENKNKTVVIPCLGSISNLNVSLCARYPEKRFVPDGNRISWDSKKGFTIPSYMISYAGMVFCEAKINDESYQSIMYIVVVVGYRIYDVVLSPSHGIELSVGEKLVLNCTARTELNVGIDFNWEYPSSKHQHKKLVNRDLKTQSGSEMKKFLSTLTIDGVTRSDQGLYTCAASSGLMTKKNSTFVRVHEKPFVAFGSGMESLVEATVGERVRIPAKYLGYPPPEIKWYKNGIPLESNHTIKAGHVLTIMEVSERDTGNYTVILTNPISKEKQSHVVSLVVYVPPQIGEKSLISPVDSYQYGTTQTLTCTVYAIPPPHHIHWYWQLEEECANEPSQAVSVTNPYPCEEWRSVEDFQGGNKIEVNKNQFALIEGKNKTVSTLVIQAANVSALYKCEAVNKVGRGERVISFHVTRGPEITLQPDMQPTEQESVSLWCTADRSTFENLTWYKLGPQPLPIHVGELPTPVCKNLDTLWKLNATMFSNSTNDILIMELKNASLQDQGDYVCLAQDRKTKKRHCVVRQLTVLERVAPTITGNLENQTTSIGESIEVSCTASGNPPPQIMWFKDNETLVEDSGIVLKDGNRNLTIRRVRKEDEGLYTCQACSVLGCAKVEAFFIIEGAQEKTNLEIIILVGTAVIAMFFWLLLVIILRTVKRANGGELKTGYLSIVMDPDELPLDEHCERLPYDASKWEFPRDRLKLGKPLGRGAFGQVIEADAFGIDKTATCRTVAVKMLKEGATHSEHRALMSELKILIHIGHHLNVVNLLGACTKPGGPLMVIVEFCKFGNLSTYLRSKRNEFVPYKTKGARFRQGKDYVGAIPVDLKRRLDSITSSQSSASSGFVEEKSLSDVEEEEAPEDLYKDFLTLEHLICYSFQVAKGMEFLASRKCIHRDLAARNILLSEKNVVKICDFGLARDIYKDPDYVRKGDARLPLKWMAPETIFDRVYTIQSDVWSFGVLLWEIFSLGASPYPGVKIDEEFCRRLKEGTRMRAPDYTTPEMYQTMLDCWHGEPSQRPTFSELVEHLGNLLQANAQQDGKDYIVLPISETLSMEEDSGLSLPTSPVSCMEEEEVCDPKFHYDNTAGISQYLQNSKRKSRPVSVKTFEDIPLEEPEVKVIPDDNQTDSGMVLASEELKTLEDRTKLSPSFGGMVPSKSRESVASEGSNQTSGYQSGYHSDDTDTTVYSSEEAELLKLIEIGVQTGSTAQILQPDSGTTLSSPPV

Regarding “leukocyte antigen-related protein tyrosine phosphatase (LAR)”, in data set [1], the “VEGF-induced tyrosine phosphorylation of VEGFR2 in HUVECs overexpressing LAR (AdLAR)” value is on record as “overexpression of LAR had no effect on VEGF-induced tyrosine phosphorylation of VEGFR2 in HUVECs”. For the same substance, in data set [2], the “IGF-1-induced tyrosine phosphorylation of IGF-1Rβ in HUVECs overexpressing LAR (AdLAR); IP with anti-IGF-1Rβ, Western blot with anti-phosphotyrosine” value was “LAR overexpression inhibited IGF-1-induced tyrosine phosphorylation of IGF-1Rβ in a dose-dependent manner, with maximum inhibition at 2.5 MOI” and the “IGF-1Rβ autophosphorylation in IGF-1-treated HUVECs after LAR knockdown with siRNA” value was “knockdown of endogenous LAR with LAR-specific siRNA (FIGS. 3A-3B) significantly increased IGF-1Rβ activity, without an apparent effect on IGF-1Rβ expression levels, in HUVEC treated with IGF-1”.
